Assays:
GST-FBXO22-SKP1 (human) = GST-FBXO22-SKP1 (human) (UniProt Q8NEZ5); test: BLI; Octet Red 96, anti-GST probes loaded with 200 nM GST-FBXO22-SKP1, BACH1-BTB as analyte, 30°C; 25 mM HEPES pH 7.4, 100 mM NaCl, 1 mM TCEP, 0.1% Tween-20, 0.05 mg/mL BSA; Kd from steady-state equilibrium
[1] = target: Tag-free FBXO22-SKP1 complex (human) (UniProt Q8NEZ5); test: SEC-MALS; Superdex 200 10/300 GL, 20 mM Tris-HCl pH 8.0, 150 mM NaCl, 0.25 mM TCEP, room temperature; tag-free FBXO22-SKP1, His-BACH1-BTB and their mixture
Chain of Tag-free FBXO22-SKP1 complex (human) (Q8NEZ5 whole entry, chain 1 of 2): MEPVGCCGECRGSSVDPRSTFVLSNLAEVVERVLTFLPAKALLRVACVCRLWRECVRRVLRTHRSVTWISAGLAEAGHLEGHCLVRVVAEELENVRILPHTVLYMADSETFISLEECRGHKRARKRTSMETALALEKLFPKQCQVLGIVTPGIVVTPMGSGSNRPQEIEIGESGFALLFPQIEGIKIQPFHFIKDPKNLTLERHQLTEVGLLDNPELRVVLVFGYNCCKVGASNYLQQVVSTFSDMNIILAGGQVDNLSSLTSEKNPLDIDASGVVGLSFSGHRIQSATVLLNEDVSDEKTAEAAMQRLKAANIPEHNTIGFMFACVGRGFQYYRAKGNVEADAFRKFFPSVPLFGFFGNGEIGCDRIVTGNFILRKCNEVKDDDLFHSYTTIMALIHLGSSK
Chain of Tag-free FBXO22-SKP1 complex (human) (P63208 whole entry, chain 2 of 2, further chain): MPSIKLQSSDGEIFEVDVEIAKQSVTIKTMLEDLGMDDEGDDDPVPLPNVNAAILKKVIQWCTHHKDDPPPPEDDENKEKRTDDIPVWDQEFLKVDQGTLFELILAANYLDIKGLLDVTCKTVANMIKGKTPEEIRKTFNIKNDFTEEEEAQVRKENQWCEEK

Chain of BACH1 BTB domain (O14867 7-128): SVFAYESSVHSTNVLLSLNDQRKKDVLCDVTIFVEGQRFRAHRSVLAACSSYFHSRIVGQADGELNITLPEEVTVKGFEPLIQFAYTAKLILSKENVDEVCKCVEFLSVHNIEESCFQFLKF
Chain of His-BACH1-BTB (O14867 7-128): as above
Chain of GST-FBXO22-SKP1 (human) (Q8NEZ5 whole entry, chain 1 of 2): as the sequence (Q8NEZ5 whole entry, chain 1 of 2) above
Chain of GST-FBXO22-SKP1 (human) (P63208 whole entry, chain 2 of 2, further chain): as the sequence (P63208 whole entry, chain 2 of 2, further chain) above

| Kd (GST-FBXO22-SKP1 (human)) [nM] | stoichiometry N (FBXO22-SKP1 per BACH1 BTB dimer) [1] | Substance |
| --- | --- | --- |
| 90 |  | BACH1 BTB domain (from UniProt O14867 7-128) (domain or fragment) |
|  | 1 | His-BACH1-BTB (from UniProt O14867 7-128) (domain or fragment) |
